# According to publication PMC8257661:
# B1: Junin virus (JUNV) Z protein (natural protein)
# chain: MGNCNGASKSNQPDSSRVTQPAAEFRRVAHSSLYGRYNCKCCWFADTNLITCNDHYLCLRCHQVMLRNSDLCNICWKPLPTTITVPVEPTAPPP
# Target: Junin virus (JUNV) L protein (Junin virus (JUNV))
# Assay: MST; […] (20–[…]); […]; 50 mM HEPES pH 7.8, 500 mM NaCl, 1 mM TCEP; […]
row,Molecule,Kd [nM]
1,Z (AA 18–47) peptide of JUNV Z protein,863
2,Z (AA 48–78) peptide of JUNV Z protein,1150
3,B1,393
